Laboratory results: patent publication US20160184441A1, “PROLAMIN-BASED FILM AND METHOD FOR MANUFACTURING PROLAMIN-BASED ORAL FILM FOR PROTECTING ACTIVITY OF ANTI-OXIDATIVE MATERIAL” (SEHABIO CO., LTD., priority 2014, published 2016)

Assays:
[1] = test system: Human Skin Fibroblasts; settings: Silverberg et al. 2012; cited from earlier work
[2] = test system: catalase; assay: Catalase activity by decomposition rate of H2O2 (absorbance at 240 nm), pH 7.0; format: biochemical; settings: free enzyme vs enzyme contained in film (FIG. 2, FIG. 3)
Description: (§1) In the prolamin-based film for oral delivery containing catalase, the activity of catalase was measured by checking the decomposition rate of hydrogen peroxide (H2O2). The activity of catalase was measured by mixing catalase or the prolamin-based film for oral delivery containing catalase with 10 μM of H2O2 in a buffering solution of pH 7.0, and then monitoring the absorbance value of H2O2 at 240 nm. Further, in the prolamin-based film for oral delivery containing SOD, SOD activity was measured in accordance with the manufacturer's instructions by using SOD assay kit (SOD determination kit 19,160, Fluka, St. Louis, Mo.). Significance of results was determined via t-test between Zein film and other films containing SOD or catalase with p<0.05(*).
The activities of catalases contained in the film for oral delivery as prepared in the Comparative Example 1-1 and Example 1-1 were compared. […] 1 mg of each formulation was taken to check the quantity of fluorescence which was then compared with the initially used quantity of fluorescence, resulting in the determination of the quantity of catalase in each formulation. The activity of catalase was evaluated at pH 7.0 as described in Example 2-1 by using fluorescent-unbound catalase, forming Zein Nanoparticle and Film, and taking 1 mg of each formulation. […]

[3] = test system: catalase; assay: Catalase activity in the stomach condition (HCl pH 1.3, with or without pepsin); format: biochemical; settings: pH 1.3, 20 minutes, pepsin-treated or pepsin-untreated (FIG. 5, FIG. 6)
Description: as §1
The function of Zein in protecting an anti-oxidative protein in the stomach condition was evaluated. In order to mimic the stomach condition, catalase or the prolamin-based film for oral delivery containing catalase was added into hydrochloric acid solution (50.1 mM HCl, pH 1.3) and left for 20 minutes. […] The activities of catalase and SOD were measured in the same manner as Example 2-1. Significance of results was determined via t-test between free enzymes and other delivery vehicles with p<0.05(*).

[4] = test system: catalase; assay: Catalase activity in the small intestine condition (pH 7.4, with or without trypsin); format: biochemical; settings: pH 7.4, 30 minutes
Description: as §1
In order to mimic the small intestine condition, test groups were divided into […] Trypsin-treated group and Trypsin-untreated group, respectively, while being left for 30 minutes in the environment of pH 7.4.
The activities of catalase and SOD were measured in the same manner as Example 2-1. Significance of results was determined via t-test between free enzymes and other delivery vehicles with p<0.05(*).

| Compound | protection of cells from reactive oxygens [1] | relative activity of catalase [2] | relative activity of catalase in the stomach condition [3] | relative activity of catalase in the small intestine condition, Trypsin-treated ([4]; Trypsin-treated group (FIG. 8, FIG. 9)) | relative activity of catalase at pH 7.4, Trypsin-untreated ([4]; Trypsin-untreated group (FIG. 8)) |
| --- | --- | --- | --- | --- | --- |
| Cn1c(=O)c2c(ncn2C)n(C)c1=O [Caffeine, caffeine] | able to protect cells from reactive oxygens |  |  |  |  |
| catalase |  | approximately similar to those as contained in the Zein-based film | lost almost completely its activity | lost its activity significantly | maintained its activity |
